Test results reported in patent US20170088624A1 (Janssen / Centocor, published 2017).

Tests used:
cyno CD40 (SPR analyte) = biological target: T1, cyno CD40 (SPR analyte) (Macaca fascicularis (cynomolgus), UniProt P25942 21-193 (human entry), limits assumed); assay: SPR ProteOn XPR36, mAb captured, cyno CD40 as analyte, 25 C; did not fit well to 1:1 model
T1 construct: also called cCD40-ECD
T1 chain: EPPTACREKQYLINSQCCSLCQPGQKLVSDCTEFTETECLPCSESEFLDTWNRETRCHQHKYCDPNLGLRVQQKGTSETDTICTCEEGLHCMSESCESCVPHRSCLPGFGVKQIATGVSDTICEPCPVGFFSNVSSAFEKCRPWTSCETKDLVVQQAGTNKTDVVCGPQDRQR
Method: (§1) Affinity measurements were performed using Surface Plasmon Resonance (SPR) using a ProteOn XPR36 system (BioRad). […] Approximately 5000 RU (response units) of mAbs were immobilized. The kinetic experiments were performed at 25° C. in running buffer (DPBS+0.01% P20+100 μg/ml BSA). To perform kinetic experiments, 200 RU of mAbs were captured followed by injections of analytes (human or cyno CD40) at 5 concentrations (in a 4-fold serial dilution). The association phase was monitored for 3 minutes at 50 μL/min, then followed by 15 minutes of buffer flow (dissociation phase). The chip surface was regenerated with two 18 second pulses of 100 mM H₃PO₄ (Sigma, Cat#7961) at 100 μL/min.
(§2) The collected data were processed using ProteOn Manager software. First, the data was corrected for background using inter-spots. Then, double reference subtraction of the data was performed by using the buffer injection for analyte injections. The kinetic analysis of the data was performed using a Langmuir 1:1 binding model. The result for each mAb was reported in the format of Ka (On-rate), Kd (Off-rate) and KD (equilibrium dissociation constant).
(§3) The parameters reported in this table were obtained from a 1:1 Langmuir binding model for all samples. Affinity, KD=kd/ka.

human CD40 (SPR analyte) [1] = biological target: T2, human CD40 (SPR analyte) (human, UniProt P25942 21-193); assay: SPR ProteOn XPR36, mAb captured, CD40 as analyte, 25 C; upper end of the range of n = 2; upper end of the range of the n = 2 replicates
T2 construct: also called huCD40-ECD
Method: as §1, §2, §3

human CD40 (SPR analyte) [2] = biological target: T2, human CD40 (SPR analyte); assay: SPR ProteOn XPR36, mAb captured, CD40 as analyte, 25 C; average of n = 2; did not fit well to 1:1 model
Method: as §1, §2, §3

human CD40 (SPR analyte) [3] = biological target: T2, human CD40 (SPR analyte); assay: SPR ProteOn XPR36, mAb captured, CD40 as analyte, 25 C; upper end of the range of n = 2
Method: as §1, §2, §3

[4] = biological target: T3, Full length human CD40 (huCD40) on cells (human, UniProt P25942 21-277); assay: flow cytometry, HEK-Blue CD40L cells
T3 construct: CD40 on human mature DCs, human B cells, Raji cells and HEK-Blue CD40L cells (stably expressing human CD40); also called TNFRSF5

human CD40 (SPR analyte) [5] = biological target: T2, human CD40 (SPR analyte); assay: SPR ProteOn XPR36, mAb captured, CD40 as analyte, 25 C; lower end of the range of n = 2; lower end of the range of the n = 2 replicates
Method: as §1, §2, §3

[6] = biological target: T4, Macaca fascicularis (cyno) CD40 (cCD40) on cells (Macaca fascicularis (cynomolgus), UniProt P25942 21-277 (human entry)); assay: flow cytometry, cyno mature DCs
T4 construct: CD40 on cyno mature DCs
T4 chain: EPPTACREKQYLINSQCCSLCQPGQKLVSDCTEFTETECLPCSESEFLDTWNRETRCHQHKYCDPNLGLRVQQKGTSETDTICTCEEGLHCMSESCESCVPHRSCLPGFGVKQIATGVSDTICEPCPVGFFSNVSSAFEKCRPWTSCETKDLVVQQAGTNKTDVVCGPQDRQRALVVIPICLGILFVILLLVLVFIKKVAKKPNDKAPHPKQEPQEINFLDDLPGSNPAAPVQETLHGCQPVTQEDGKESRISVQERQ
Method: (§4) Human monocytes were isolated from either frozen/fresh PBMC using CD14 negative isolation kit per manufacturer's protocol (MACS Miltenyi). Cyno monocytes were isolated from fresh PBMC using CD14 positive isolation kit per manufacturer's protocol (MACS Miltenyi). To generate DCs, monocytes were cultured for 5 days in complete media RPMI (Invitrogen) in the presence of 100 ng/ml human GM-CSF and human IL-4 (Peprotech) and media was replenished every 2 days. On day 5, DCs were stimulated with 100 ng/ml LPS (Sigma) for 24 hours. Cells were then stained with each of the tested CD40 antibody at different concentration in flow cytometry buffer (PBS+1% FBS; BD Bioscience) in 100 μl volume for 30 minutes on ice followed with two washes with flow buffer. Cells were then stained for additional 30 minutes on ice with APC-conjugated anti human IgG (Jackson ImmunoResearch) at the recommended dilution 1:100 and washed twice with flow buffer. Cells were analyzed for percent positive and Mean Fluorescence Intensity (MFI) to determine the antibody binding using Fortessa (BD Bioscience).
(§5) The experiments were conducted using assays described above. 20 antibodies were characterized further based on their binding to human DCs, cyno DCs, Raji cells and HEK-Blue™ CD40L cells.

[7] = biological target: T3, Full length human CD40 (huCD40) on cells; assay: flow cytometry, human mature DCs
Method: as §4, §5

[8] = biological target: T3, Full length human CD40 (huCD40) on cells; assay: cell-based or functional assay
[9] = biological target: T3, Full length human CD40 (huCD40) on cells; assay: flow cytometry, Raji cells
[10] = biological target: T3, Full length human CD40 (huCD40) on cells; assay: cell-based or functional assay; remark: listed apart in the source
human CD40 (SPR analyte) [11] = biological target: T2, human CD40 (SPR analyte); assay: SPR ProteOn XPR36, mAb captured, CD40 as analyte, 25 C; lower end of the range of n = 2
Method: as §1, §2, §3

B1: C40M55 (antibody, human IgG1, kappa, V domains shown)
VH: QVQLVQSGAEVKKPGSSVKVSCKASGGTFSSYAISWVRQAPGQGLEWMGGIIPIFGTANYAQKFQGRVTITADESTSTAYMELSSLRSEDTAVYYCARDGYRRYGIGRYGFDYWGQGTLVTVSS
VL: not shown
notes: Full-length IgG1/kappa; from phage display
Kd (cyno CD40 (SPR analyte)): 2.59 nM
koff (cyno CD40 (SPR analyte)): 0.00215 s⁻¹
kon (cyno CD40 (SPR analyte)): 831000 M⁻¹ s⁻¹
koff (human CD40 (SPR analyte) [1]): 0.00217 s⁻¹
kon (human CD40 (SPR analyte) [1]): 1.02e+06 M⁻¹ s⁻¹
Kd (human CD40 (SPR analyte) [2]): 2.15 nM
koff (human CD40 (SPR analyte) [2]): 0.00203 s⁻¹
kon (human CD40 (SPR analyte) [2]): 944000 M⁻¹ s⁻¹
Kd (human CD40 (SPR analyte) [3]): 2.17 nM
EC50 [4]: 0.0631 µg/mL
koff (human CD40 (SPR analyte) [5]): 0.00188 s⁻¹
kon (human CD40 (SPR analyte) [5]): 868000 M⁻¹ s⁻¹
EC50 [6]: 0.0218 µg/mL
EC50 [7]: 0.102 µg/mL
DC EC50, CD80 surface expression, with cross-linker [8]: 0.0616 µg/mL
DC EC50, CD83 surface expression, with cross-linker [8]: 0.103 µg/mL
DC EC50, CD86 surface expression, with cross-linker [8]: 0.198 µg/mL
DC EC50, HLA-DR surface expression, with cross-linker [8]: 0.0811 µg/mL
EC50 [9]: 0.0461 µg/mL
B cells EC50, CD23 surface expression, with cross-linker [10]: 0.0616 µg/mL
B cells EC50, CD80 surface expression, with cross-linker [10]: 0.00143 µg/mL
B cells EC50, CD83 surface expression, with cross-linker [10]: 0.00125 µg/mL
B cells EC50, CD86 surface expression, with cross-linker [10]: 0.000646 µg/mL
B cells EC50, HLA-DR surface expression, with cross-linker [10]: 0.000437 µg/mL
Kd (human CD40 (SPR analyte) [11]): 2.12 nM
